Laboratory results taken from patent US12517124B2, “Chimeric receptor for use in whole-cell sensors for detecting analytes of interest” (INSERM (Institut National de la Sante et de la Recherche …, priority 2017, dated 2026).

B1: full-length LexA: full-length LexA transcriptional repressor, positive control (protein, UniProt P0A7C2 1-202, looked up)
chain: MKALTARQQEVFDLIRDHISQTGMPPTRAEIAQRLGFRSPNAAEEHLKALARKGVIEIVSGASRGIRLLQEEEEGLPLVGRVAAGEPLLAQQHIEGHYQVDPSLFKPNADFLLRVSGMSMKDIGIMDGDLLAVHKTQDVRNGQVVVARIDDEVTVKRLKKQGNKVELLPENSEFKPIVVDLRQQSFTIEGLAVGVIRNGDWL
modifications: full-length
notes: full-length LexA transcriptional repressor, positive control
B2: CadC-wtTM-GCN4: CadC DNA binding domain, wild type CadC transmembrane region, C-terminal autodimerization leucine zipper GCN4 (protein)
chain: MQQPVVRVGEWLVTPSINQISRNGRQLTLEPRLIDLLVFFAQHSGEVLSRDELIDNVWKRSIVTNHVVTQSISELRKSLKDNDEDSPVYIATVPKRGYKLMVPVIWYSEEEGEEIMLSSPPPIPEAVPATDSPSHSLNIQNTATPPEQSPVKSKRFTTFWVWFFFLLSLGICVALVAFSSLDTRLPMLEDKVEELLSKNYHLENEVARL

Legend:
[1] = tested on: Green Fluorescent Protein (GFP) driven by the LexA promoter; type: cell-based, E. coli; details: different IPTG concentrations
Source text: In order to prevent interference from endogenous E. coli LexA, we used the mutant LexA-408, and its corresponding promoter which is not recognized by the wild type LexA. We fused LexA DBD to a monomeric LBD that undergoes ligand-induced homodimerization. Thus, in the presence of ligand, LexA DBD should be able to bind DNA and repress target gene expression.
We used a single-domain VHH camelid antibody that can be dimerized upon binding to its ligand caffeine (termed VHH-Caffeine from herein). As a negative control we chose a VHH targeting RNase A (termed VHH-Control from herein).
Detection of caffeine using a LexA-VHH fusion. We built two chimeric proteins, expressed in E. coli cytoplasm, composed of an N-terminal LexA DBD and a C-terminal VHH, and placed their expression under the control of the pLacO1 promoter induced by isopropyl β-D-1-thiogalactopyranoside (IPTG). As a reporter, we used the Green Fluorescent Protein (GFP) driven by the LexA promoter. As positive and negative controls, we expressed full-length LexA and LexA DBD. […] We then characterized the behavior of cells expressing LexAVHH-Caffeine and LexA-VHH-Control in response to increasing concentrations of IPTG and caffeine (data not shown). […] We then monitored the response of the LexA-VHH fusions to increasing concentrations of caffeine at different IPTG concentrations. […] We calculated the fold repression of LexA-VHH-Caffeine.

[2] = tested on: reporter GFP through pCadBA promoter; experiment: Activation of CadC transcriptional factor by periplasmic GCN4 domain oligomerization, GFP reporter, flow cytometry; type: cell-based, E. coli; details: compared to construct without GCN4; 1 mM IPTG
Source text: CadC and LexA transcriptional factor DNA binding domain, Leucine zipper GCN4, VHHcafe and VHHRNase were synthesized by INTEGRATED DNA TECHNOLOGIES® (IDT®). Different DNA components such as GFP reporter, CadBA promoter, pLexA promoter and CadC variants were constructed into BIOBRICK® standard vector pSB4K5 by Gibson assembly methods. The resulting constructs were transformed into E. coli strain NEB®10beta (NEW ENGLAND BIOLABS®, NEB®) and determined their performance. In all constructs, the expression level of CadC variants are under the control of pLac-1 promoter, which can be induced by IPTG. The CadC variants control the expression of reporter GFP through pCadBA promoter.
Pick a single colony of CadC operating unit variant into 3 mL of LB/kanamycin medium and incubate in 37° C. overnight with vigorous shaking. The overnight culture is further diluted 100 fold into 3 mL of LB/kanamycin medium and incubated in 37° C. for 4 hours to reach to exponential phase (O.D=0.4˜0.6). […] The resulting cell culture was further analyzed with ATTUNE® NxT flow cytometer. […]

Molecule | response to increasing concentrations of caffeine [1] | fold activation of downstream reporter gene (GFP) expression [2] [fold]
B1 | not affected by caffeine | –
B2 | – | 50
